± gives the uncertainty stated by the source.
B1: CD2-associated protein, residues 271 to 331; numbered along this chain, Q9Y5K6 (parent)
chain: KEYCRTLFAYEGTNEDELTFKEGEIIHLISKETGEAGWWRGELNGKEGVFPDNFAVQINEL

Variants of: B1
Test: abundance fitness (aPCA) (normalised: wild type 0, dead -1); higher = more abundant; growth selection in yeast, the domain comes from the species named
Details: Homo sapiens

Row | Variant | abundance fitness
1 | T6K | -0.607 ± 0.13
2 | T6N | -0.926 ± 0.29
3 | T6V | -0.844 ± 0.19
4 | T6W | -1.15 ± 0.24
5 | T6S | -0.103 ± 0.055
6 | G37Y | -0.898 ± 0.2
7 | G37P | -0.852 ± 0.2
8 | G37V | -0.647 ± 0.1
9 | G37M | -0.819 ± 0.17
10 | G37S | -0.718 ± 0.1
11 | G37N | -0.747 ± 0.16
12 | G37E | -0.368 ± 0.19
13 | H27G | -0.09 ± 0.064
14 | H27D | -0.335 ± 0.16
15 | H27N | -0.165 ± 0.1
16 | H27W | -0.276 ± 0.066
17 | H27L | -0.079 ± 0.064
18 | H27C | 0.013 ± 0.078
19 | P51D | -0.487 ± 0.15
20 | P51C | -0.923 ± 0.25
21 | P51S | -0.56 ± 0.076
22 | P51E | -0.573 ± 0.19
23 | P51K | 0.152 ± 0.13

Row | Variant | abundance fitness
24 | K46V | -0.033 ± 0.068
25 | K46Y | -0.34 ± 0.12
26 | K46A | -0.134 ± 0.091
27 | A9Y | -0.309 ± 0.096
28 | A9W | -0.448 ± 0.07
29 | A9M | -0.291 ± 0.063
30 | A9C | -0.129 ± 0.078
31 | A9N | -0.013 ± 0.077
32 | A9D | -0.011 ± 0.097
33 | A9F | -0.469 ± 0.13
34 | F50L | -0.668 ± 0.07
35 | F50V | -0.674 ± 0.086
36 | F50M | -0.845 ± 0.14
37 | C4T | -0.714 ± 0.12
38 | C4F | -0.007 ± 0.11
39 | C4Q | -0.9 ± 0.25
40 | C4L | -0.046 ± 0.064
41 | Y3L | -0.131 ± 0.05
42 | Y3N | -0.292 ± 0.12
43 | Y3H | -0.278 ± 0.26
44 | Y3G | -0.611 ± 0.14
45 | Y3K | -0.748 ± 0.3
46 | Y3D | -0.555 ± 0.27

Row | Variant | abundance fitness
47 | W38N | -0.787 ± 0.13
48 | W38I | -0.361 ± 0.075
49 | W38P | -0.729 ± 0.1
50 | W38Y | -0.043 ± 0.079
51 | W38E | -0.781 ± 0.19
52 | G48E | -0.688 ± 0.08
53 | G48I | -0.725 ± 0.2
54 | G48A | -0.65 ± 0.093
55 | G48Y | -1.18 ± 0.34
56 | G48D | -0.695 ± 0.15
57 | G48V | -0.864 ± 0.087
58 | G48C | -1.01 ± 0.15
59 | D52Q | -0.02 ± 0.17
60 | D52V | -0.16 ± 0.067
61 | D52L | -0.055 ± 0.059
62 | D52W | -0.186 ± 0.12
63 | D52N | 0.008 ± 0.28
64 | R5P | -0.978 ± 0.21
65 | R5Q | -0.37 ± 0.33
66 | R5H | -0.461 ± 0.081
67 | R5L | -0.383 ± 0.081
68 | E22Q | -0.081 ± 0.086
69 | E22G | -0.26 ± 0.089

Row | Variant | abundance fitness
70 | E22T | -0.25 ± 0.091
71 | E22N | -0.437 ± 0.088
72 | E22S | -0.119 ± 0.053
73 | T19W | -0.555 ± 0.19
74 | T19V | -0.66 ± 0.074
75 | T19M | -0.598 ± 0.16
76 | T19E | -0.696 ± 0.21
77 | E17T | -0.428 ± 0.067
78 | E17I | -0.991 ± 0.19
79 | E17W | -0.855 ± 0.083
80 | E17Q | 0.049 ± 0.071
81 | F54Q | -0.347 ± 0.13
82 | F54A | 0.162 ± 0.062
83 | F54L | 0.037 ± 0.06
84 | E47I | 0.053 ± 0.061
85 | E47M | -0.301 ± 0.21
86 | E47C | -0.104 ± 0.068
87 | E42C | -0.201 ± 0.1
88 | E42R | -0.099 ± 0.066
89 | E42L | -0.218 ± 0.082
90 | E42T | -0.185 ± 0.12
91 | E42N | -0.078 ± 0.24
92 | E42W | -0.313 ± 0.1

Row | Variant | abundance fitness
93 | F20Q | -0.629 ± 0.11
94 | F20M | -0.714 ± 0.11
95 | F20H | -0.603 ± 0.18
96 | F20I | -0.492 ± 0.13
97 | F20S | -0.564 ± 0.083
98 | F20N | -0.551 ± 0.12
99 | G12A | 0.036 ± 0.055
100 | G12Q | -0.513 ± 0.1
101 | G12H | -0.837 ± 0.16
102 | G12M | -0.786 ± 0.13
103 | G12D | -0.794 ± 0.13
104 | G12P | -0.381 ± 0.087
105 | A55I | -0.274 ± 0.13
106 | A55S | -0.505 ± 0.077
107 | A55K | -0.92 ± 0.17
108 | A55P | -0.738 ± 0.14
109 | A55H | -1.01 ± 0.3
110 | N14T | -0.041 ± 0.072
111 | N14C | 0.029 ± 0.097
112 | N14H | -0.107 ± 0.074
113 | N14Q | -0.012 ± 0.081
114 | N14W | -0.239 ± 0.11
115 | G45R | -0.617 ± 0.087

Row | Variant | abundance fitness
116 | G45V | -0.845 ± 0.083
117 | G45C | -0.322 ± 0.15
118 | G45Q | -0.612 ± 0.1
119 | G45L | -0.858 ± 0.079
120 | G45I | -0.453 ± 0.2
121 | E15W | -0.343 ± 0.069
122 | E15L | -0.208 ± 0.061
123 | E15F | -0.43 ± 0.11
124 | E15M | -0.23 ± 0.1
125 | E15C | -0.123 ± 0.11
126 | E15S | -0.138 ± 0.07
127 | E15P | -0.027 ± 0.082
128 | E15T | -0.27 ± 0.09
129 | R40I | -0.547 ± 0.11
130 | R40F | -0.16 ± 0.091
131 | R40S | -0.609 ± 0.066
132 | R40L | -0.009 ± 0.05
133 | T33I | -0.099 ± 0.14
134 | T33N | -0.333 ± 0.16
135 | T33R | -0.473 ± 0.045
136 | T33W | -0.331 ± 0.057
137 | T33K | -0.332 ± 0.1
138 | T33A | -0.198 ± 0.083

Row | Variant | abundance fitness
139 | E11L | -0.377 ± 0.06
140 | E11T | -0.216 ± 0.093
141 | E11F | -0.151 ± 0.17
142 | E11M | -0.254 ± 0.11
143 | E11I | -0.164 ± 0.13
144 | E2S | -0.128 ± 0.067
145 | E2F | -0.351 ± 0.18
146 | E2D | 0.039 ± 0.12
147 | E2M | 0.073 ± 0.15
148 | E32V | -0.152 ± 0.049
149 | E32M | -0.307 ± 0.076
150 | E32W | -0.116 ± 0.07
151 | E32T | -0.111 ± 0.05
152 | E32L | -0.481 ± 0.048
153 | E32I | -0.18 ± 0.072
154 | E32R | -0.222 ± 0.049
155 | E32N | 0.085 ± 0.064
156 | L61A | 0.033 ± 0.13
157 | L61Y | 0.064 ± 0.21
158 | L61R | -0.049 ± 0.064
159 | L61S | 0.152 ± 0.077
160 | L61K | 0.033 ± 0.12
161 | L61T | 0.105 ± 0.12
